Patent US20250019457A1 (IBIO, published 2025)
Where two headings read alike, the source gives them in different places.

T1: human TROP2 (purified recombinant antigen, Acro Biosystems Cat #TR2-H5223) (human, UniProt P09758 27-274)
T1 construct: Bought recombinant protein; also called huTROP2
T1 sequence: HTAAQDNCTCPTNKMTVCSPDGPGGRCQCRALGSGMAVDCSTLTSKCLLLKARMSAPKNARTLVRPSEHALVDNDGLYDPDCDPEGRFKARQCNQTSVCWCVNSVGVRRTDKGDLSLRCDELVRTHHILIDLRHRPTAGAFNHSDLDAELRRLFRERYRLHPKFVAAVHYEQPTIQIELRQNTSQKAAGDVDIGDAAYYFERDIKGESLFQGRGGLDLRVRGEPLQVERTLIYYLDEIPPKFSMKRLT

T2: cynomolgus/rhesus TROP2 (purified recombinant antigen, Acro Biosystems Cat #TR2-R52H3) (cynomolgus/rhesus, UniProt P09758 27-274 (human entry))
T2 construct: Bought recombinant protein; also called cyTROP2; cyno/rhesus TROP2
T2 chain: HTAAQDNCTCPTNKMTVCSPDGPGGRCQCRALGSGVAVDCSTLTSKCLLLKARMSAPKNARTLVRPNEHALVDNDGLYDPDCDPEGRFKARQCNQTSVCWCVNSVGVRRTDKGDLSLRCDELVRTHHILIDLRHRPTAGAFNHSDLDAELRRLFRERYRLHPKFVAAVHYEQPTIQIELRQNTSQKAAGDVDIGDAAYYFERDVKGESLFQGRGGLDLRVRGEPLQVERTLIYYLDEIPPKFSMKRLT

T3: human Trop2 on cells (FaDu cells, endogenous; ExpiCHO cells overexpressing human Trop2) (human, UniProt P09758 27-323)
T3 construct: Cell-surface form
T3 sequence: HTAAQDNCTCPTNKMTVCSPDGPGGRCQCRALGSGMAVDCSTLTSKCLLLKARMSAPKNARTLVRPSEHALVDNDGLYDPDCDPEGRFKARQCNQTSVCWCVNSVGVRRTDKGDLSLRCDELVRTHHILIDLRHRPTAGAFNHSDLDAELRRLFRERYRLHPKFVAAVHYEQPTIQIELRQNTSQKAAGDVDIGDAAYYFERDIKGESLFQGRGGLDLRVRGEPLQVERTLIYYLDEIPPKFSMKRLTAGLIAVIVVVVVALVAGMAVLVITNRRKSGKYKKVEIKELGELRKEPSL

T4: mouse TROP2 (purified recombinant antigen, Acro Biosystems Cat #TR2-M52H6) (mouse, UniProt Q8BGV3 25-270)
T4 construct: Bought recombinant protein; also called msTROP2
T4 sequence: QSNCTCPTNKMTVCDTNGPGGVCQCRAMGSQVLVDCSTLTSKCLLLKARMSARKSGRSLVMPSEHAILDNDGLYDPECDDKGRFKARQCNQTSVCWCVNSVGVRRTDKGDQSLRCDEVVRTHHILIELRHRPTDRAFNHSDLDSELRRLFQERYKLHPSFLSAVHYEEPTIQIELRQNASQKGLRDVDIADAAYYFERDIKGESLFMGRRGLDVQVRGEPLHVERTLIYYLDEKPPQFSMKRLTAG

T5: human EpCAM (purified recombinant antigen, Acro Biosystems Cat #EPM-H5223) (human, UniProt P16422 24-265)
T5 construct: Bought recombinant protein
T5 sequence: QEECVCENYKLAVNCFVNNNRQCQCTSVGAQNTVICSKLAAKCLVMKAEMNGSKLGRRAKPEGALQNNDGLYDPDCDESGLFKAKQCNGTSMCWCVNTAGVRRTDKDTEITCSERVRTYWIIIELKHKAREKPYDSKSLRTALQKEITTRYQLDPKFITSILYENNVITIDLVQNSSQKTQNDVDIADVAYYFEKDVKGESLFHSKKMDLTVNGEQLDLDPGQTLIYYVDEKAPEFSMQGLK

T6: mouse Trop2 on ExpiCHO cells overexpressing mouse Trop2 (mouse, UniProt Q8BGV3 25-317)
T6 construct: Cell-surface form
T6 sequence: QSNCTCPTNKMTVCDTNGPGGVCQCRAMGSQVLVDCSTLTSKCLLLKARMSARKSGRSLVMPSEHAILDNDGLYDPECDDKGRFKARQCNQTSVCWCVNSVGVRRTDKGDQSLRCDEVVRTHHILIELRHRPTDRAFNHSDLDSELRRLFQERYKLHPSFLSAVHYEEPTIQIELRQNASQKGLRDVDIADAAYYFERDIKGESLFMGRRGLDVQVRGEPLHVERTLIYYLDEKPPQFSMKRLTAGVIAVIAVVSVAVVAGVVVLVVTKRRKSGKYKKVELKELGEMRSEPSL

B1: SD-813149 (antibody, V domains shown)
VH: EVKLDESGGGLVKPGGSLKLSCAASGFTFSSYTMSWVRQTPEKRLEWVATINSDGIYTYYPDSVKGRFTISRDNAKNTLYLQMSSLKSEDTAMYYCTRVHYYGYDAMDYWGQGTSVTVSS
VL: EIQMTQSPASLSASVGETVTITCRASENIYSYLAWYQQKQGKSPQLLVYSAKTLAEGVPSRFSGSGSGTHFSLKINSLQPEDFGSYYCQHHYGIPLTFGAGTKLELK
notes: Mouse/human chimera
B2: SD-530939 (antibody, V domains shown)
VH: AVTLDESGGGLQTPGGGLSLVCKASGFDFIDYDMFWVRQAPGKGLEWVGVINRSGSYTNYAPAVKGRATISRDNGQSTLRLQLNNLRAEDTGTYYCARGACTHCWDADSAGYIDAWGHGTEVIVSS
VL: ALALTQPSSVSANPGETVKITCSGGYSGYGWYQQKSPGSAPVTVIYWNDKRPSNIPSRFSGSLSGSTNTLIITGVQAEDEAVYFCGGYDSSPGYVGIFGAGTTLTVL
notes: Chicken/human chimera
B3: SD-802432 (antibody, V domains shown)
VH: AVTLDESGGGLQTPGGGLSLVCKASGFDFIDYDMFWVRQAPGKGLEWVAVINRSGSYTNYAPAVKGRATISRDNGQSTLRLQLNNLRAEDTGTYYCARGACTHCWDADSAGYIDTWGHGTEVIVSS
VL: ALALTQPSSVSANPGETVKITCSGGSGSYGWFQQKSPGIAPVIVIFNDDNRPSDIPSRFSGSKSGSTGTLTITGVQAEDEAVYFCGGYDGSTDAGIFGAGTTLTVL
notes: Chicken/human chimera
B4: SD-589775 (antibody, V domains shown)
VH: AVTLDESGGGLQTPGGGLSLVCKASGFDFIDYDMFWVRQAPGKGLEWVGVINRSGSYTNYAPAVKGRATISRDNGQSTMRLQLNNLRAEDTGTYYCARGACTHCWDADSAGYIDAWGHGTEVIVSS
VL: ALALTQPSSVSANPGGTVKITCSGSSGSYGWHQQKSPGSAPVTVIYSSDKRPSDIPSRFSGALSGSTATLTITGVRAEDEAVYYCGGYDGSTDVGIFGAGTTLTVL
notes: Chicken/human chimera; also called parental chimera
B5: SD-168804 (antibody, V domains shown)
VH: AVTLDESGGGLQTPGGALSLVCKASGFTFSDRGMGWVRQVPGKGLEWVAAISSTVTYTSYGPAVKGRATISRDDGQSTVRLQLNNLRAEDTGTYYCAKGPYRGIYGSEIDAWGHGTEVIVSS
VL: ALALTQPSSVSANPGETVKITCSGGSYSYGSYYYGWYQQKSPGSAPVTVIYDNDKRPSGIPSRFSGSKSGSTGTLTITGVQAEDEAVYFCGSTDSSSTAAFGAGTTLTVL
notes: Chicken/human chimera
B6: SD-320063 (antibody, V domains shown)
VH: AVTLDESGGGLQTPGGGLSLVCKASGFDFIDYDMFWVRQAPGKGLAWVGVINRSGSYTNYAPAVKGRATISRDNGQSTVRLQLNNLRAEDTGTYYCAKGVCTHCWDADSAGNIDAWGHGTEVIVSS
VL: ALALTQPSSVSANPGETVEITCSGGSGNYGWFQQKSPGSAPVTVIYNNNYRLSDIPSRFSGSASGSTATLTITGVRVEDEAVYFCGSADSTYVGLFGAGTTLTVL
notes: Chicken/human chimera
B7: SD-661765 (antibody, V domains shown)
VH: QVQLVETGGDLVKPGGSLKLSCAASGFTFSTYGMSWVRQTPDKRLEWVATISSGGIYTYYSDSVKGRFTISRDNAKNTLYLQMSSLKSEDTAMYYCARDGNYLGFDFWGQGTTLTVSS
VL: DIVMTQSPASLAVSLGQRATISCRASESVESYGNSFMNWYQQKPGQPPKLLIYRASNLESGIPARFSGSGSRTDFTLTINPVEADDVATYYCQQSYEDPRTFGGGTKLEIK
notes: Mouse/human chimera

What was measured:
[1] = target: T1, human TROP2 (purified recombinant …); assay: SPR, Carterra LSA; antibody captured on anti-human IgG, antigen injected; 1:1 fit
[2] = target: T2, cynomolgus/rhesus TROP2 (purified …); assay: as above
[3] = target: T1, human TROP2 (purified recombinant …); assay: MSD assay: biotinylated TROP2 on streptavidin plate, antibody titrated, anti-human SULFO-TAG detection
[4] = target: T3, human Trop2 on cells (FaDu cells, …); assay: flow cytometry on FaDu cells (endogenous human Trop2); average of n=1-3 experiments
[5] = target: T1, human TROP2 (purified recombinant …); assay: SPR, Carterra LSA; antibody captured on anti-human IgG, antigen injected; 1:1 fit; remark: listed apart in the source
[6] = target: T4, mouse TROP2 (purified recombinant …); assay: SPR, Carterra LSA; antibody captured on anti-human IgG, antigen injected
[7] = target: T5, human EpCAM (purified recombinant …); assay: as above
[8] = target: T6, mouse Trop2 on ExpiCHO cells …; assay: flow cytometry on ExpiCHO cells overexpressing mouse Trop2, percent of cells bound
[9] = target: T4, mouse TROP2 (purified recombinant …); assay: SPR, Carterra LSA; antibody captured on anti-human IgG, antigen injected; 1:1 fit
[10] = target: T4, mouse TROP2 (purified recombinant …); assay: SPR, Carterra LSA; ratio of KD values, reference huTROP2
[11] = target: T3, human Trop2 on cells (FaDu cells, …); assay: flow cytometry on ExpiCHO cells overexpressing human Trop2, percent of cells bound

Row | Binder | Kd [1] [nM] | Kd [2] [nM] | EC50 (read off the curve) [3] [nM] | EC50 [4] [nM] | Kd [5] [nM] | koff [5] [s⁻¹] | kon [5] [M⁻¹ s⁻¹] | binding result [6] | binding result [7] | EC50 (read off the curve) [8] [nM] | Kd [9] [nM] | Fold difference in affinity (huTROP2:msTROP2) [10] [fold] | EC50 (read off the curve) [11] [nM]
1 | B1 | 0.43 | 0.38 | ~0.2 | 2.19 | 0.43 | 0.000163 | 377000 | no binding (tested: 1 µM top concentration) | no binding (tested: 1 µM top concentration) | – | – | – | –
2 | B2 | 0.46 | 0.6 | ~0.2 | 0.673 | 0.46 | 0.000155 | 337000 | – | no binding (tested: 1 µM top concentration) | ~0.02 | 0.96 | 2.1 | ~0.02
3 | B3 | 0.1 | 0.13 | ~0.2 | 0.738 | 0.1 | 5.53e-05 | 542000 | – | no binding (tested: 1 µM top concentration) | ~0.02 | 0.3 | 2.9 | ~0.02
4 | B4 | 0.35 | 0.48 | – | 0.607 | 0.35 | 0.000223 | 643000 | – | no binding (tested: 1 µM top concentration) | ~0.02 | 0.35 | 1 | ~0.02
5 | B5 | 11.5 | 15.3 | – | 1.05 | 11.5 | 0.000294 | 25500 | – | no binding (tested: 1 µM top concentration) | ~5 | 13.6 | 1.2 | –
6 | B6 | 0.23 | 0.11 | – | 1.99 | 0.23 | 3.42e-05 | 148000 | – | no binding (tested: 1 µM top concentration) | ~0.03 | 1.59 | 6.9 | –
7 | B7 | 1.65 | 1.82 | ~0.2 | 1.07 | 1.65 | 0.000574 | 348000 | no binding (tested: 1 µM top concentration) | no binding (tested: 1 µM top concentration) | – | – | – | –
